Assay: yeast display, Sf9 membrane polyspecificity reagent, FACS + sequencing; frameworks hold sequencing errors
In short: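 In a synthetic yeast display library (Saccharomyces cerevisiae BJ5465), nanobody expression was induced with galactose for 36–48 hours. FACS gates were set low and high (top ~1%) using anti-HA fluorescence for expression and streptavidin fluorescence for binding of the Sf9 membrane reagent. Each polyreactivity label is drawn from the gate of origin.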

Row | Sequence | polyreactivity (PSR sort gate)
1 | QVQLVESGGGLVQAGGSLRLSCASSGSTFDINAMGWYTQAPGKARELVAAITCGGGTNYADSVKGRFTISRDNAKNTVYLEMNSLKPEDTAVYYCAAVYYSTDYYFWYDYWGQGTQVTVSS | low polyreactivity
2 | QVHLVESGGGLVQAGGSLRLSCAASGITFNSNAMGWYRQAPGKERELVAAITVSGGNTYYADSVKGRFTISRDNAKNTVYLQMYSLKPEDTAVYYCNTASDVSWYVHYYYWRQGTQVTVSS | low polyreactivity
3 | QVQLVESGGGLVQAGGSLRLSCAASGSTFFWYGMGWYRQAPGKERELVAAISSDGSTYYADSVKGRFTISRDNAKNTVYLQMNSLKPEDTAVYYCAAQIPWYIYPGSYTMDYWGQGTQVTVSS | low polyreactivity
4 | QVQLVESGGGLVQAGGSLRLSCAASGSTFGNNAMGWYRQAPGKERELVATIDDTTVSTNYADSVKWRFTISRDNAKNTVYLQMNSLKPEDTAVYYCAAPVGNYGSFDYWGQGTQVTVSS | low polyreactivity
5 | QVQLVESGGGLVQAGGSLRLSCAASGIIFYGNAMGWYRQAPGKERELVARITGSDGRTYYADSVKGRFTISRDNAKNTVYLQMNSLKPEDTAVYYCNADRVRTAVYSYVYAYGIMNYWGQGTQVTVSS | low polyreactivity
6 | QVQLVESGGGLVQAGGSLRLSCAASGSIFPIYTMGWYRQAPGKERELVAAITYNAGSTYYADSVKGRFTISRDNAKNTVYLQMNSLKPEDTAVYYCAADRYYDRTFPGYDYWGQGTQVTVSS | low polyreactivity
7 | QVQLVESGGGLVQAGGSLRLSCAASGRTFGFYVMGWYRQAPGKERELVAAITPGGNTNYADSVKGRFTISRDNAKNSVYLQMNRLKPEDTAVYYCAASPGTIASYEGDFWGQGTQVTVSS | low polyreactivity
8 | QVQLVESGGGLVQAGGSLRLSCAASGFTFTAYAMGWYRQAPGKERELVAAISYRGGRTNYAYSVKGRFTISRDYAKYTVYLQMNSLKPEDTAVYYCAARPRISTREMDYWGQGTQVTVSS | high polyreactivity
9 | QVQHVESGGGLVQAGGSLRLSCAASGIIFRENALGWDRQAPGKERELVAGISSGGNTNYADSGKGRFTISRDNAKNPVYLQMNSLNPEDTAVYYCNTDWYLPRYVLLGYFSGTEDYWGQGTQVTLSS | low polyreactivity
10 | QVQLVESGGGLVQAGGRLRLSCAASGGTFSKNAIGWYRQAPGKEREFVAAISSTGGDTTYYADSVKGRFTISRDNAKNTVYLQMNSVKPEDTAFYYCNSDYIFWPWYDYWGQGTQVTVSS | low polyreactivity
11 | QVQLVESGGGLVQAGGSLRLSCAASGRTFGGNAMGWYRQAPGKERELVAAISSGGSTNYADSVKGRFTISRDNANNTVYLQMNSLKPEDTAVYYCAARGPYWGQGTQVTVSS | low polyreactivity
12 | QVQLVESGGGLVQAGGSLRLSCAASGGIVRLYGMGWDRQAPGKEMEFVAAISSGGGRTYYADSVKGRFTLSRDNAKNTVYLQMNSLKPEDTAVYYCNAELNWYYYIHLDYWGQGTQVTVSS | low polyreactivity
13 | QVQLVESGGGLVQAGGSLRLTCAASVSIFSVYARGWYRQAPGKERELVADINIGGASTYYADSVKGRFTISRDNAKNTVFLQMNSVIPEDTAVYSCAKEYYEGYFPTFDYDYWGQGTQVNVSS | low polyreactivity
14 | QVQLVESGGGLVQAGGSLRLSCAASGSTFVFYAMGWYRPAPGKERELVASISFRGGSTRYADSVKGRFTISRDNAKNTVYLHMNSLKPEDTAVYYCNARPFYRYYYWGQGTQVTVSS | high polyreactivity
15 | QVQLVESGGGLVQAGGSLRLSCAASGSIFNYNDMGWYRQAPGKERELVAAIDSSGTSTYYADSVKGRFTISRDNAKNTVYLQMTSLKPEDTAVYYCNADYRGWGYHMDYWGQGTQVTVSS | low polyreactivity
16 | QVQLVESGGGLVQAGGSLRISCAASGGIIQYYDMGWYRQAPGKEREFVATISQRGGITYYADSVKGRFTISRDNAKNTVYLQMNSLKPEDTAVYYCAARSYYAVYYWGQGTQVTVSS | high polyreactivity

— the nanobody polyreactivity screen of Harvey et al. (2022)
